Assay results as given in publication PMC9482650, “Quantitative fragmentomics allow affinity mapping of interactomes” (Nature Communications, 2022).

T1: DFNB31_2, Q9P202
T1 sequence (Q9P202 274-371, limits assumed, looked up): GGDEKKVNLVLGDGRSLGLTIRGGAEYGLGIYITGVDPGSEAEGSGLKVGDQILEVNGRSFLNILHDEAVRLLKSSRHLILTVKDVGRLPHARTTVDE

T2: SNTB1, Q13884
T2 sequence (Q13884 107-205, limits assumed, looked up): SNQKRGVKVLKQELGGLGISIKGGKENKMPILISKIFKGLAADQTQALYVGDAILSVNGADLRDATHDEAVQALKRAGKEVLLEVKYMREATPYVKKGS

T3: ARHGAP21, Q5T5U3
T3 sequence (Q5T5U3 45-169, limits assumed, looked up): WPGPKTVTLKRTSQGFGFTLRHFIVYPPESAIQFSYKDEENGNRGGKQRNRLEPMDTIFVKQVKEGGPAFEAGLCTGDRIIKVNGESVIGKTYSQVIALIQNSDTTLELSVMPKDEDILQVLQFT

T4: DFNB31_3, Q9P202
T4 sequence (Q9P202 811-907, limits assumed, looked up): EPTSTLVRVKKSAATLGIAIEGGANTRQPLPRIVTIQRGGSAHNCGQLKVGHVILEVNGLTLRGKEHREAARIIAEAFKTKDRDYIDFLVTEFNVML

T5: DFNB31_1, Q9P202
T5 sequence (Q9P202 135-233, limits assumed, looked up): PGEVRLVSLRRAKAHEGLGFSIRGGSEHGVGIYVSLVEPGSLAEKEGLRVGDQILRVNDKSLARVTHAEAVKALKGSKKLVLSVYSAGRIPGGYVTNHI

T6: LNX2_2, Q8N448
T6 sequence (Q8N448 334-432, limits assumed, looked up): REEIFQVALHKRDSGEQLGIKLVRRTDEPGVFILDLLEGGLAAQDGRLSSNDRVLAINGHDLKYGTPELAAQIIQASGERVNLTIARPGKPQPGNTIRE

T7: HTRA3, P83110
T7 sequence (P83110 354-453, limits assumed, looked up): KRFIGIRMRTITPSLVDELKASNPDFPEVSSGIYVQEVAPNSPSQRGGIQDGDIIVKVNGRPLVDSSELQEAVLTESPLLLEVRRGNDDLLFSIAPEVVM

T8: TJP3_3, O95049
T8 sequence (O95049 375-456, limits assumed, looked up): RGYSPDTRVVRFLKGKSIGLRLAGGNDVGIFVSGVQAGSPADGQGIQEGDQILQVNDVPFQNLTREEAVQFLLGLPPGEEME

T9: SNTG1, Q9NSN8
T9 sequence (Q9NSN8 52-150, limits assumed, looked up): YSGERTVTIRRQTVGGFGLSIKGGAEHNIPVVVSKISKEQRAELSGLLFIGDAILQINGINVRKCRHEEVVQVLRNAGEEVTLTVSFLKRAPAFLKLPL

T10: APBA2_2, Q99767
T10 sequence (Q99767 654-744, limits assumed, looked up): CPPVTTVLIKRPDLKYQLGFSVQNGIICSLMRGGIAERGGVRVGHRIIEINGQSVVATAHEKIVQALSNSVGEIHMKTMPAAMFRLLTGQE

T11: RAPGEF6, Q8TEU7
T11 sequence (Q8TEU7 525-625, limits assumed, looked up): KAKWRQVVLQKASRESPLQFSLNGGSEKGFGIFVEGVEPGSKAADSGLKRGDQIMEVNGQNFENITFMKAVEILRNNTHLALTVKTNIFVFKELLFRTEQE

T12: CARD11, Q9BXL7
T12 sequence (Q9BXL7 662-765, limits assumed, looked up): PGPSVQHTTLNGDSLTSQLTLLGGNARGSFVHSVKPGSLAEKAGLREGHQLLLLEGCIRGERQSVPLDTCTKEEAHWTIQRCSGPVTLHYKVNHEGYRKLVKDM

T13: MPDZ_12, O75970
T13 sequence (O75970 1857-1958, limits assumed, looked up): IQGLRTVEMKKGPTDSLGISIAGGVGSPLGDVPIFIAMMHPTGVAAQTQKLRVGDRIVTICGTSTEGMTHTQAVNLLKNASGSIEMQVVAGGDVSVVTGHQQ


Assays:
Experiment in all cases: holdup assay
Parameters in all cases: key: below the threshold = too weak to quantify, mostly under pKd 3.1 to 4
Conditions in all cases: plain residues with an end cap or a label only (N-terminal biotin on a linker: ado-ado)
PTPN3, P26045 = biological target: PTPN3, P26045
PTPN3, P26045, sequence (P26045 505-587): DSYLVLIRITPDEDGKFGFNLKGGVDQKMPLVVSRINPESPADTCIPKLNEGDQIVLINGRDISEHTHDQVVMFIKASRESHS

PICK1, Q9NRD5 = biological target: PICK1, Q9NRD5
PICK1, Q9NRD5, sequence (Q9NRD5 17-115): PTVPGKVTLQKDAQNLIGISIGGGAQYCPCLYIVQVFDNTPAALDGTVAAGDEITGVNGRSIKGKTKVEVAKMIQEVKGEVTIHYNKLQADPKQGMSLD

DFNB31_2, Q9P202 = biological target: T1, DFNB31_2, Q9P202
SNTB1, Q13884 = biological target: T2, SNTB1, Q13884
ARHGAP21, Q5T5U3 = biological target: T3, ARHGAP21, Q5T5U3
DFNB31_3, Q9P202 = biological target: T4, DFNB31_3, Q9P202
DFNB31_1, Q9P202 = biological target: T5, DFNB31_1, Q9P202
LNX2_2, Q8N448 = biological target: T6, LNX2_2, Q8N448
Inadl_10, Q8NI35 = biological target: Inadl_10, Q8NI35
Inadl_10, Q8NI35, sequence (Q8NI35 1673-1763): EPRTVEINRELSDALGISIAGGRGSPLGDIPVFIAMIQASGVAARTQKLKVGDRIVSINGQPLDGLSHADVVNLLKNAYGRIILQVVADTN

FRMPD4, Q14CM0 = biological target: FRMPD4, Q14CM0
FRMPD4, Q14CM0, sequence (Q14CM0 67-160): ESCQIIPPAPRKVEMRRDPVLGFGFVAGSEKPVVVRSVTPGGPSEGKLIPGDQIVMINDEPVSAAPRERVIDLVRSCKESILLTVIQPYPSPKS

IL16_3, Q14005 = biological target: IL16_3, Q14005
IL16_3, Q14005, sequence (Q14005 1107-1207): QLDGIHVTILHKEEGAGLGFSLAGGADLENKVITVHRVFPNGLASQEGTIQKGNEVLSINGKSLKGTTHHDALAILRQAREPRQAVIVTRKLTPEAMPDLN

HTRA3, P83110 = biological target: T7, HTRA3, P83110
TJP3_3, O95049 = biological target: T8, TJP3_3, O95049
Inadl_4, Q8NI35 = biological target: Inadl_4, Q8NI35
Inadl_4, Q8NI35, sequence (Q8NI35 547-651): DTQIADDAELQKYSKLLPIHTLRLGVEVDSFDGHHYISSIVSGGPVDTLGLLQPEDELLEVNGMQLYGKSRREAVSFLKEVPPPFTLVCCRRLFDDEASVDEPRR

MAGI2_6, Q86UL8 = biological target: MAGI2_6, Q86UL8
MAGI2_6, Q86UL8, sequence (Q86UL8 1141-1229): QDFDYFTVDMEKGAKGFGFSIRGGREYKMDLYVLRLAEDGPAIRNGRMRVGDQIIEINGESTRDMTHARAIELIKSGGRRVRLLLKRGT

GIPC2, Q8TF65 = biological target: GIPC2, Q8TF65
GIPC2, Q8TF65, sequence (Q8TF65 112-203): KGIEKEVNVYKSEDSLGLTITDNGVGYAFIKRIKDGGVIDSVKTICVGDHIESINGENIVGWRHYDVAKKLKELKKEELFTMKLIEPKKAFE

SNX27, Q96L92 = biological target: SNX27, Q96L92
SNTG1, Q9NSN8 = biological target: T9, SNTG1, Q9NSN8
APBA2_2, Q99767 = biological target: T10, APBA2_2, Q99767
RAPGEF6, Q8TEU7 = biological target: T11, RAPGEF6, Q8TEU7
SCRIB_1, Q14160 = biological target: SCRIB_1, Q14160
SCRIB_1, Q14160, sequence (Q14160 718-814): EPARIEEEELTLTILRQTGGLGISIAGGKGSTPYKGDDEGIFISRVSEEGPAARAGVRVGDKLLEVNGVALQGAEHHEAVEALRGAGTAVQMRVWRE

NOS1, P29475 = biological target: NOS1, P29475
NOS1, P29475, sequence (P29475 9-101): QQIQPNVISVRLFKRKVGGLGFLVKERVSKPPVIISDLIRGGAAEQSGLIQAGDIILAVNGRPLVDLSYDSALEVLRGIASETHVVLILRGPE

CARD11, Q9BXL7 = biological target: T12, CARD11, Q9BXL7
NHERF4_2, Q86UT5 = biological target: NHERF4_2, Q86UT5
NHERF4_2, Q86UT5, sequence (Q86UT5 220-308): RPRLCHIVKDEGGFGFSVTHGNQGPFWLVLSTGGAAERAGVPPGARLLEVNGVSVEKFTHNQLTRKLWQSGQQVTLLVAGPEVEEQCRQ

MPDZ_12, O75970 = biological target: T13, MPDZ_12, O75970

Binder	pKd (PTPN3, P26045)	pKd (PICK1, Q9NRD5)	pKd (DFNB31_2, Q9P202)	pKd (SNTB1, Q13884)	pKd (ARHGAP21, Q5T5U3)	pKd (DFNB31_3, Q9P202)	pKd (DFNB31_1, Q9P202)	pKd (LNX2_2, Q8N448)	pKd (Inadl_10, Q8NI35)	pKd (FRMPD4, Q14CM0)	pKd (IL16_3, Q14005)	pKd (HTRA3, P83110)	pKd (TJP3_3, O95049)	pKd (MAGI2_6, Q86UL8)	pKd (GIPC2, Q8TF65)	pKd (APBA2_2, Q99767)	pKd (RAPGEF6, Q8TEU7)	pKd (NOS1, P29475)	pKd (CARD11, Q9BXL7)	pKd (NHERF4_2, Q86UT5)	other results
YLEPVLSSEL [ATP2A2, P16615;P16615-3]	4.93	below the threshold	below the threshold	below the threshold	below the threshold	4.03	below the threshold	below the threshold	below the threshold	below the threshold	below the threshold	below the threshold	below the threshold	3.91	below the threshold	below the threshold	below the threshold	below the threshold	below the threshold	below the threshold	pKd (Inadl_4, Q8NI35): below the threshold; pKd (SNX27, Q96L92): 4.12; pKd (SNTG1, Q9NSN8): below the threshold; pKd (SCRIB_1, Q14160): 4.38
KSGKQTMLVV [TRIM29, Q14134;Q14134-2]		below the threshold	below the threshold	below the threshold	4.14	below the threshold	below the threshold	5.19	below the threshold	below the threshold	below the threshold	below the threshold	below the threshold	below the threshold	below the threshold	below the threshold	below the threshold	below the threshold	below the threshold	below the threshold	pKd (MPDZ_12, O75970): below the threshold; pKd (SCRIB_1, Q14160): below the threshold
LPAHHNATRL [SLC34A1, Q06495;Q06495-1]	4	4.19	below the threshold	below the threshold	3.99	below the threshold		below the threshold	below the threshold	4.31	below the threshold	below the threshold	below the threshold	below the threshold	below the threshold	below the threshold	below the threshold	4.09	below the threshold	below the threshold	pKd (MPDZ_12, O75970): below the threshold; pKd (Inadl_4, Q8NI35): below the threshold; pKd (SNX27, Q96L92): 4.19; pKd (SNTG1, Q9NSN8): below the threshold
